According to US20180112000A1 (MILTENYI BIOTEC, published 2018):

How the values were obtained:
[1] = target: T1, recombinant CD28 antigen (extracellular domain, expressed in mammalian cells) (UniProt P10747 19-152, limits assumed); assay: SPR (Biacore), CD28 ECD on CM5 chip, Fab as analyte at 50 ug/mL, 1:1 binding mass transfer model
T1 construct: extracellular domain; Immobilized on a CM5 chip by amine coupling; also called T-cell-specific surface glycoprotein CD28
Protocol: (§1) Therefore, recombinant CD28 antigen (extracellular domain, expressed in mammalian cells) was immobilized on a CM5 chip by standard amine coupling. The Fab variants were used as analytes in HBS-EP buffer (0.01 M HEPES pH 7.4, 0.15 M NaCl, 3 mM EDTA, 0.005% v/v Surfactant P20) in a concentration of 50 μg/mL. Evaluation was conducted with the BIAeval Software using an 1:1 binding mass transfer model.

[2] = target: T1, recombinant CD28 antigen (extracellular …); assay: SPR (Biacore), CD28 ECD on CM5 chip, Fab as analyte
Protocol: as §1

Kd [1] [nM] | koff [1] [s⁻¹] | kon [1] [M⁻¹ s⁻¹] | affinity [%] (by KD, chCD28 Fab set to 100%) [2] | Binder
53 | 0.021 | 400000 | 60 | huCD28_v4 Fab (humanized) (Fab, V domains shown, not shown: small tags and cut ends, Humanized 15E8 Fab expressed in E. coli periplasm) VH: QVQLQESGPGLVKPSETLSLTCTVSGFSLTSYGVHWIRQPPGKGLEWLGVIWAGGSTNYNSSLKSRVTISKDTSKNQVSLKLSSVTAADTAVYYCARDKRAPGKLYYGYPDYWGQGTTLTVSS VL: DIVMTQSPDSLAVSLGERATINCRASESVEYYVTSLMQWYQQKPGQPPKLLIYAASNVESGVPARFSGSGSGTDFTLTISPLQAEDVAVYYCQQTRKVPSTFGGGTKLEIKR
92 | 0.055 | 600000 | 35 | huCD28_v2 Fab (humanized) (Fab, V domains shown, not shown: small tags and cut ends, Humanized 15E8 Fab expressed in E. coli periplasm) VH: QVQLQESGPGLVKPSETLSLTCTVSGFSLTSYGVHWVRQPPGKGLEWIGVIWAGGSTNYNPSLKSRVTISKDTSKNQFSLKLSSVTAADTAVYYCARDKRAPGKLYYGYPDYWGQGTTLTVSS VL: DIVMTQSPDSLAVSLGERATINCKSSESVEYYVTSLLQWYQQKPGQPPKLLIYAASNRESGVPDRFSGSGSGTDFTLTISSLQAEDVAVYYCQQTRKVPSTFGGGTKLEIKR
42 | 0.08 | 1.9e+06 | 76 | huCD28_v1 Fab (humanized) (Fab, V domains shown, not shown: small tags and cut ends, Humanized 15E8 Fab expressed in E. coli periplasm) VH: QVQLQESGPGLVKPSETLSLTCTVSGFSLTSYGVHWVRQPPGKGLEWLGVIWAGGSTNYNSALMSRLTISKDTSKNQVSLKLSSVTAADTAVYYCARDKRAPGKLYYGYPDYWGQGTTLTVSS VL: DIVMTQSPDSLAVSLGERATINCRASESVEYYVTSLMQWYQQKPGQPPKLLIYAASNVESGVPDRFSGSGSGTDFTLTISSLQAEDVAVYYCQQTRKVPSTFGGGTKLEIKR
52 | 0.026 | 500000 | 62 | huCD28_v3 Fab (humanized) (Fab, V domains shown, not shown: small tags and cut ends, Humanized 15E8 Fab expressed in E. coli periplasm) VH: QVQLQESGPGLVKPSETLSLTCTVSGFSLTSYGVHWIRQPPGKGLEWLGVIWAGGSTNYNSSLKSRVTISKDTSKNQVFLKLSSVTADDTAVYYCARDKRAPGKLYYGYPDYWGQGTTLTVSS VL: DIVMTQSPDSLAVSLGERATINCRASESVEYYVTSLMQWYQQKPGQPPKLLIYAASNVESGVPARFSGSGSGTDFTLTISPLQAEDVAVYYCQQTRKVPSTFGGGTKLEIKR
32 | 0.032 | 1e+06 | 100 | chCD28 Fab (chimeric) (Fab, V domains shown, Fab expressed in E. coli periplasm; not shown: Fabs were purified by IMAC) VH: QVQLKESGPGLVAPSQSLSITCTVSGFSLTSYGVHWVRQPPGKGLEWLGVIWAGGSTNYNSALMSRLSISKDNSKSQVFLKMNSLQTDDTAMYYCARDKRAPGKLYYGYPDYWGQGTTLTVSS VL: DIVLTQSPASLAVSLGQRATISCRASESVEYYVTSLMQWYQQKPGQPPKLLIYAASNVESGVPARFSGSGSGTDFSLNIHPVEEDDIAMYFCQQTRKVPSTFGGGTKLEIKR
